# Assay: soluble on expression in E. coli; label from the status in PepcDB or PDB records
row,Sequence,soluble on expression in E. coli
1,MGGFLVLNSSNNVVRTVPSKKRKHPEYKSKGSQIRELISGIRSDNLREAVRLPQGVDINEWFAMNNFFNQISLLYATLEEFCTQTTCPVMNAGRYEYRWADGTTITKPKTVSAPKYVEYLIDWVETEIDNEAIFPKNPGEPFPPNFEDFVKRILRKLFRVYAHIYYSHFHEIVALNEQAHLNTCFKHFLLFVSEFQLVDKEKEMAPIKSLVETMLDQ,soluble
2,GSDLPIDPNEPTYCLCNQVSYGEMIGCDNDECPIEWFHFSCVGLNHKPKGKWYCPKCRGENE,soluble
3,MAHYKAADSKREQFRRYLEKSGVLDTLTKVLVALYEEPEKPNSALDFLKHHLGAATPENPEIELLRLELAEMKEKYEAIVEENKKLKAKLAQYEPPQEEKRAE,soluble
4,MGSDKIHHHHHHMSQFIDILRQHLADFQWRYAHQITPEIQDAIHAMLSCRCNTARVSCCEQQREFPLSCGHRSCPQCQHGTTCDWLSKQQAKLLPVNYFMVTFTLPFELRAIAKSQPDLLYHALFTVAASVLKDFAVRSPKLSGDIGFTGVLHTYSRRRDYHPHLHCIIPAGSYHPGKRQWRKCQTHYLFNAFNLAKVWRARLLTYLSDRLQLKLPH,not soluble
5,MTGKKRSASSSRWLQEHFSDKYVQQAQKKGLRSRAWFKLDEIQQSDKLFKPGMTVVDLGAAPGGWSQYVVTQIGGKGRIIACDLLPMDPIVGVDFLQGDFRDELVMKALLERVGDSKVQVVMSDMAPNMSGTPAVDIPRAMYLVELALEMCRDVLAPGGSFVVKVFQGEGFDEYLREIRSLFTKVKVRKPDSSRARSREVYIVATGRKP,soluble
6,DGPYLQILEQPKQRGFRFRYVCEGPSHGGLPGASSEKNKKSYPQVKICNYVGPAKVIVQLVTNGKNIHLHAHSLVGKHCEDGVCTVTAGPKDMVVGFANLGILHVTKKKVFETLEARMTEACIRGYNPGLLVHSDLAYLQAEGGGDRQLTDREKEIIRQAAVQQTKEMDLSVVRLMFTAFLPDSTGSFTRRLEPVVSDAIYDSKAPNASNLKIVRMDRTAGCVTGGEEIYLLCDKVQKDDIQIRFYEEEENGGVWEGFGDFSPTDVHRQFAIVFKTPKYKDVNITKPASVFVQLRRKSDLETSEPKPFLYYPEIKDKEEVQRKRQK,soluble
7,MAHHHHHHMITSINVIHELLTTIYCRIFSRKRKDIYKYDVLLYLQDYYYFDVIKRVSDDIKELDDDSITIEINSNEYEVILNGDKSSSFFNHTFENFCIHRGYDIIKDKTYSNEYEKRIDFLHELLCDLLCLLLNENNEKKGKEKEKEEKKNNMNKNMNYNKERVINKMYHNNNHLFKKFWENIQDILKEINILNENKYVEDINEENIKDILYIQKEKLIKNEDIIIKKNVDINKITLLNNLIEKYNNEYKYRFYYIFLNNYLTIQTMFTSNMIYLYSYEIQNIIHKIIKMKINLYQPLTIYDVLAFQYDQIMFHKSSYMNLISPVKKIKILNNIVERGGDPDEFSKKVIIKDVINANISLKAKFNKARTQNDNNWGNNKYKVRNYYDNNRR,soluble
8,MGSDKIHHHHHHMVTKTKTRLGNQRPTQSVTLHYVESLAHEAIELYQKTGRNCYPWQVNLLENIMGIDNNGLWVHQKYGYAIPRRNGKTEDVYILELWALHHGLRILHTAHRISTSHSSFEALKKLLEDMGYVEDVDFVSNKAKGQERIEFKSTGSVIQYRTRTSNGGLGEGFDLLIIDEAQEYTVEQESALKYTVTDSDNPMTVMCGTPPTMVSTGTVFTNFRTKVLAGKSEYSGWSEWSVEDIKDVNDIDSWYLTNPSLGYHLTERKIKAEIGDDELDHNIQRLGYWPSFNQKSAISENEWKRLKVDDVPELSGKLFVGIKYGQDGSNVSMSIAARTIDKKIFIEVIDCQSVRNGMQWIINFLQTADIEKVVVDGANGQTLLANEMKDFKLREPIMPTVSEIITANSVWEQAIVQETLRHANQPSLTEVVTNCDKRNIGSNGGFGYKSLYDDRDISLMDSALLAHWVCYMTKPKRKQRISY,not soluble
9,MGSDKIHHHHHHMSIKLDHRLLYLRVIEKIKSDIDDGVYKEGEKLPSEFELSKQLGVSRATLREALRILEDENIVIRKHGVGTFINARPPFTSGIEELYSVTEMIARAGMIPTSEVLSSEMVQPTERDRERFQLGPDELVYRIERIRLAGDVPVVYCVDKIPSHYIKNEEQFTSSTSLFDALEKELGRRVTHAVTHIEPRIDPKIAEQLHTDQPLLVLRQTHYDELDRSVLYSANYFRADKFDFHVIRKRV,not soluble
10,MGSDKIHHHHHHMPKILKFNEEARRALERGVDKVANAVKVTLGPKGRNVVIEKSWGSPTITNDGVSIAKEIELEDKFENLGAQLVKEVASKTNDVAGDGTTTATVLAQAMIKEGLKNVAAGANPILLKRGIDKAVEKAVEEIKKVSKKLSGREDIAHVAAISANSAEIGELIAEAMDKVGEDGVITVEDSKTLETYVEFTEGMQFDRGYISPYFVTDAEKMEVVLKEPFILITDRKLSAVKPLIPILEKVAQTGKPLLVIAEDVEGEVLTTLVLNKLKGTLQSCAVKAPGFGERRKAMLQDIAILTGGQVASEELGINLEDLTLEDLGRADLVRVKKDETIIIGGKGDPEAIKKRIAQIKAQIEETTSEYEKETLQERMAKLAGGVAVIKVGAATETELKEKKHRIEDALSATRAAVEEGIVPGGGVTLLRARKAVEKVIEELEGDEKIGAQIVYKALSAPIKQIAENAGYDGAVIIEKILSNDDPAYGFDALRGEYCNMFERGIIDPAKVTRSALQNAASIAGMLLTTEVLIVEKPEEKKETPSMPEEF,not soluble
11,MNENDGKNSAEKHNNSQDEGSIQPDKTQLDDVADDAEKKSEKSSNCMIWSQNVLKKAKISNMTREFRNNKEYKPNVTTSISEKMMDKNRYRHIFCGDDNRVVLKERDPSNDYIHASWMVMPDGFQFISTQGPIKNTIADFWHMVYTEKCHVIVMLCQYIEEDQEKCQRYFSDTSEKEYGDYRVKVVEKTVELWNPVKVTGIQVQKKNCPTKHMVYHYFYYDWHDQVAPLDPAPMIKMYKAVLNKSSSKPIVVHCSAGVGRTSTFVGIYLSQIMIRENSSVDMVEILKRLRTMRLGAVQSQLQYVYLVVLMIELFIDDKIIKRNANYESLLKKYADVTRKVTAAIMEEEEKRRQRKKREEEKEKEQEKESPATKEEKKKENGLKTNRQRDNREAPSKPPRKNPEELARSKLQGPRKLTLKNRDGNAEEPTAKDNEERSTAEDKSKNRQKSVYVKMPLSSKEKGSKHERAKQGARKNAARKAKKKPSVTGNY,not soluble
12,MGSDKIHHHHHHMAFIKPEQQFNPDALHNLVIGIAADMGKHDSGMHHHHKAQLLYASAGCMRFSLADTQVVLPPTRAAWLPAGVEHHVTMRNVVAYRSLYFEPEAVASLPSEVTIFHVNPLLKALIDTMSYWPWNKPRYSQHNAFALFCEELENAKAENLALPLPQDKRLQTWLKQVLQQEMQPANLKEMAIEIGASERTISRIFSSQTGMAYQAWRQQWRLLSAIEQLAAGTSVAQAGFNLQFSSDSAFISFFKQYTGTTPAQYFK,not soluble
13,TGKIDGILSIGVDVTERVKWRKQIEASGARLKSMIDQTPAPTLVLMGDNLVIEQVNTSMLKLLGHEENIVGIPLLTLMPELKGQYIWEQVEKVYREGIPFDQSEVRVSHKRTGMMEDYYYNIAYRPLKED,not soluble
14,MGVRLAVRCFVVDGVLIDTGAKSMENEFTSFFQQQDIDQVVITHFHEDHTGCAAFLQRSMGLPIYMNEPMIEYCRQKADYPLYRKIFWGKRDPFAAKPIGATFSSRNATWDVIPTPGHAIDHVVFLNRETGQLFSGDLYCQEKTKVILREEDIPTIIASLQHVLTYDFGDVFCAHAGYLPLEHHHHHH,not soluble
15,MPSSVELSVQAGLEHFDAAQWDALAGPQPFVRHAFLRALHDTGCASPGTGWTPCFLALRRAGLLAGAVPLYAKSHSRGEYVFDYAWADAYARNGLPYYPKLLSAVPFTPVGGARLLAHTHADRLLLARGLIQLARQFEVSSLHVLFPSDDDLLALREAGYLIRAGVQFHWRNAGYAGFDDFLAAFSHDKRKKIRQDRKKVAAERVSFRWLRGADIDAAALDFFYQCYRHTYLAHGNPPYLNLEFFRQLHAEMPDALVLILAEQDGQPVAAALNLQADGVLYGRYWGARRYIPGLHFETCYLQSIEYCIAHGQASFEGGAQGEHKMARGLLPTPTWSAHWIADTRFAAAIDDFLGHETHAIDEYRDELATHSPFRKT,not soluble
16,SMRKFGVVVVGVGRAGSVRMRDLRNPHPSSAFLNLIGFVSRRELGSIDGVQQISLEDALSSQEVEVAYICSESSSHEDYIRQFLNAGKHVLVEYPMTLSLAAAQELWELAEQKGKVLHEEHVELLMEEFAFLKKEVVGKDLLKGSLLFTAGPLEEERFGFPAFSGISRLTWLVSLFGELSLVSATLEERKEDQYMKMTVCLETEKKSPLSWIEEKGPGLKRNRYLSFHFKSGSLENVPNVGVNKNIFLKDQNIFVQKLLGQFSEKELAAEKKRILHCLGLAEEIQKYCCSRK,soluble
17,MGSDKIHHHHHHMASDIHTLSDSLLWKRFLEGDSSAYSQIYNQTVQELFRYGLLYTSDRELVKDCIHDVFVKIYTNRAKLTPTDNIIAYLMVALKNTLFNALKKTSDSFSLDEADEKEDQSEEHFSTPETIYINKEQEKNTHMKVHAMMSSLTTRQREIVYYRYIKDMSIDEISKITDMNYQSVSNSIQRALGRVRNLFKRE,not soluble
18,MPSTADTVEVDFITPRHLAGGGDPAWITVPLHRACGWSHGHDPLMPRALLSSPDQKALLRLEPDPDGQWWTLNHTAESGRPAWYASFGARTPVELIAAFTDALTAPAPPTDAPCDPFEPLRQIAWSAPAVGADGLVSPDGTAYVQRQGSADGPGAWFVTVTLGPRPVWQARFDAHTPEHLVAAFTTALADPKPALRTDSGRSLPTRNPNVVTRKTTDVLAVDIAGALEERVQTLTTRHPLPPANPMPPTPPPTRHGRSRLEHHHHHH,soluble
19,KTNTEQFCASCHMQDAYPEYLHSVHYQTRTGVGASCPDCHVPHEFGAKMKRKIIAAKEVYAHYTGKVDTLEKFNAHRLEMAQNEWARMKANDSKECRNCHNVDRMTFNDQRSVAARMHQKMKTEGKTCIDCHKGIAHQLPDMSGVESGFKDEK,not soluble
20,MSLNKAILHDHLDGGLRPSTALELAKNDSYKPLLEIENISSFFDRSSSNSLEDYLEAFIHTTALMNKYENLERIAFEAAEDMHNCGINLYESRYAPLYSVNENLSIKDVLESINSGFKQAENLYGIQSGLILCGMRNDLKNVESVGEIAVKYKDLIIGFDIAGPELNFRPSLFSSTFKKVKNAGVNITIHAGEGDNVESIKDALENGAKRIGHGVRIIEDINLENNKLGETASLIRDKQIPLEICITSNIHTNMYKSYESHPIKDLVDLGFNISLNTDNRLMSNTDIVKEMNICKNIGIKNPENLLEMSASYSFLNEGHHHHHH,not soluble

# — the DeepSol protein solubility set
